B1: human aquaporin 10, crystallized variant hAQP10_(cryst) (domain or fragment, UniProt Q96PS8 11-277, looked up)
chain: MGHLRIRSLLARQCLAEFLGVFVLMLLTQGAVAQAVTSGETKGNFFTMFLAGSLAVTIAIYVGGNVSGAHLNPAFSLAMCIVGRLPWVKLPIYILVQLLSAFCASGATYVLYHDALQNYTGGNLTVTGPKETASIFATYPAPYLSLNNGFLDQVLGTGMLIVGLLAILDRRNKGVPAGLEPVVVGMLILALGLSMGANCGIPLNPARDLGPRLFTYVAGWGPEVFSAGNGWWWVPVVAPLVGATVGTATYQLLVALHHPEGPEPAQD
notes: human aquaglyceroporin AQP10, truncated in the termini (Δ1–10, Δ278–301): the first 10 and the last 24 amino acids removed; codon-optimized cDNA; His8 stretch fused directly to the C-terminus with no protease site; also called human AQP10; source: S. cerevisiae PAP1500, purified (IMAC, SEC); not shown: His8, C-terminal, kept

Assays:
His80 = His80 (UniProt position 80, NVSGAHLNPAF); assay: kinetics (stopped-flow fluorescence transport assay in intact yeast cells); details: 23 °C; not stated (50 mM K-citrate buffer); 50 mM K-citrate with 1.4 M sorbitol; osmotic shock with 2.1 M glycerol in 50 mM K-citrate; Channel in the yeast plasma membrane, glycerol gradient applied; pH-gated closed (high pH) to open (low pH) transition
[1] = target: the molecule itself; assay: crystal structure; hanging-drop vapor diffusion at 18 °C, 100 mM MES-NaOH pH 6.0, 19 % PEG 2k MME, 5 % glycerol; entire tetramer in the asymmetric unit; 2.3 Å

Molecule	pKa (His80)	stoichiometry N [1]
Aquaporin-10 (hAQP10), full length (Homo sapiens)	5.92 ± 0.20	
Aquaporin-10 crystallisation construct (hAQP10cryst) (Homo sapiens; del1-10;del278-301)	6.00 ± 0.13	
B1		4

From article PMC6232157, “Human adipose glycerol flux is regulated by a pH gate in AQP10” (Nature Communications, 2018)
